According to FireProtDB (doi:10.1073/pnas.0911904107):

B1: Lipid A palmitoyltransferase PagP, P37001 (parent)
chain: MNVSKYVAIFSFVFIQLISVGKVFANADEWMTTFRENIAQTWQQPEHYDLYIPAITWHARFAYDKEKTDRYNERPWGGGFGLSRWDEKGNWHGLYAMAFKDSWNKWEPIAGYGWESTWRPLADENFHLGLGFTAGVTARDNWNYIPLPVLLPLASVGYGPVTFQMTYIPGTYNNGNVYFAWMRFQF

Variants of: B1
Details: Escherichia coli (strain K12), pH 8, 25 °C, Urea, CD, structure 1THQ, whole UniProt chain shown
[1] = Sodium phosphate 50 mM, reversible: Yes
[2] = sodium phosphate buffer, transition: 2, reversible: yes

| Variant | ddG of mutation (higher = less stable) [1] [kcal/mol] | denaturant midpoint (higher = more stable) [1] [M] | unfolding free energy [1] [kcal/mol] | ddG of mutation (higher = less stable) [2] [kcal/mol] | denaturant midpoint (higher = more stable) [2] [M] | unfolding free energy [2] [kcal/mol] | denaturant m value [1] [kcal/mol/M] |
| --- | --- | --- | --- | --- | --- | --- | --- |
| E115A | 0.66 | 8.37 | 13.7 | 6.01 | 8.37 | 8.37 | – |
| F80A | 1.05 | 8.13 | 13.3 | 6.25 | 8.13 | 8.13 | – |
| M97A | 0.34 | 8.56 | 14 | 5.82 | 8.56 | 8.56 | – |
| T162A | 0.51 | 8.46 | 13.9 | 5.92 | 8.46 | 8.46 | – |
| D49N | 0.6 | 8.4 | 13.8 | 5.98 | 8.4 | 8.4 | – |
| L130A | 0.76 | 8.3 | 13.6 | 6.08 | 8.3 | 8.3 | – |
| T133A | 0.4 | 8.52 | 14 | 5.86 | 8.52 | 8.52 | – |
| R119A | 1.53 | 7.84 | 12.8 | 6.54 | 7.84 | 7.84 | – |
| Y112F | 1.37 | 7.93 | 13 | 6.45 | 7.93 | 7.93 | – |
| Q185A | -0.18 | 8.88 | 14.6 | 5.5 | 8.88 | 8.88 | 1.64 |
| Y48A | 0.91 | 8.22 | 13.5 | 6.16 | 8.22 | 8.22 | – |
| S155A | 1.27 | 8 | 13.1 | 6.38 | 8 | 8 | – |
| Q164A | 0.97 | 8.18 | 13.4 | 6.2 | 8.18 | 8.18 | – |
| S83A | 1.26 | 8.01 | 13.1 | 6.37 | 8.01 | 8.01 | – |
| W76A | 0.45 | 8.5 | 13.9 | 5.88 | 8.5 | 8.5 | – |
| A110G | 0.87 | 8.24 | 13.5 | – | – | – | – |
| Y178A | 0.55 | 8.43 | 13.8 | 5.95 | 8.43 | 8.43 | – |
| M182A | 0.77 | 8.3 | 13.6 | – | – | – | – |
| W42A | – | – | – | 6.21 | 8.17 | 8.17 | – |
| Y112G | – | – | – | 6.14 | 8.24 | 8.24 | – |
